System: HCT116 cells
Assay: Apoptosis (sub-G1 DNA, TUNEL) in HCT116 transfectants
Format: cell-based, human
Settings: FIG. 19
Method: Methods. Apoptotic cells were quantified by analysis of sub-G1 DNA and TUNEL staining. To assess sub-G1 DNA content, cells were harvested, washed with PBS, fixed with 80% ethanol, and incubated in PBS containing 20 ng/ml RNase (Roche) for 60 min at 37° C. Cells were then stained with […] propidium iodide (Sigma) for 30 min at room temperature in the dark. DNA content was analyzed by flow cytometry (EPICS XL-MCL, Coulter Corp.). Apoptotic cells with DNA fragmentation were detected by staining with the In Situ cell death detection kit (TUNEL; Roche Applied Science) and visualized by confocal microscopy (ZEISS LSM510). After staining, cells were analyzed by flow cytometry. Other experimental procedures and methods were as described in Example 15.
Results. To determine if MUC1 affects the induction of apoptosis by CDDP, cells were analyzed for sub-G1 DNA content. […] Stimulation of cell surface death receptors with TNF-α or the TNF-related apoptosis inducing factor TRAIL is associated with activation of the extrinsic apoptotic pathway. To determine if MUC1 affects death receptor-induced apoptosis, HCT116 cells were treated with TNF-α.

B1: TRAIL: TNF-related apoptosis inducing factor TRAIL, rhTRAIL (Calbiochem-Novabiochem) (protein, UniProt P50591 1-281, looked up)
Tumor necrosis factor ligand …: MAMMEVQGGPSLGQTCVLIVIFTVLLQSLCVAVTYVYFTNELKQMQDKYSKSGIACFLKEDDSYWDPNDEESMNSPCWQVKWQLRQLVRKMILRTSEETISTVQEKQQNISPLVRERGPQRVAAHITGTRGRSNTLSSPNSKNEKALGRKINSWESSRSGHSFLSNLHLRNGELVIHEKGFYYIYSQTYFRFQEEIKENTKNDKQMVQYIYKYTSYPDPILLMKSARNSCWSKDAEYGLYSIYQGGIFELKENDRIFVSVTNEHLIDMDHEASFFGAFLVG
HCT116/MUC1 cells
  TRAIL-induced apoptosis, effect of MUC1: attenuated this response
HCT116/vector cells, 100 ng/ml TRAIL without CHX
  apoptosis: effective in inducing apoptosis

— US20050042209A1, “MUC1 extracellular domain and cancer treatment compositions and methods derived therefrom” (priority 2000, published 2005)
